Holding throughout (experiment): co-expression of both H chains with the common L chain; cation exchange chromatography (IEX), ratio of peak areas of A-Homo, BiAb and B-Homo; IgG4-type
In assay [1] the target is humanized B26 antibody H chain, IgG4-type w1 (D399K, E357K).
For assay [2], the target named is humanized B26 antibody H chain, IgG4-type w3 (E357K, E356K).
The target of assay [3] is humanized B26 antibody H chain, IgG4-type w3C2 (E357K, E356K, Y349C).
In assay [4] the target is humanized B26 antibody H chain, IgG4-type w3C (E357K, E356K, S354C).
Assay [5] concerns the target humanized B26 antibody H chain, IgG4-type s1C (D399K, S354C).
Assay [6] concerns the target humanized B26 antibody H chain, IgG4-type w2 (D399K, E356K).

Where a chain is given by its changes, count along the chain named. Numbers in names are those of the source.

B1: humanized A69 antibody H chain, IgG4-type w1 (R409D, K370E) (other)
heavy: EVQLVQSGAEVVKPGSSVKVSCTASGYTFSDYYMHWVRQAPGEGLEWMGYINPSSGYTKYNRKFRDRVTITADKSTSTAYMELSSLRSEDTAVYYCARGGLGYYLDYWGEGTTVTVSSASTKGPSVFPLAPCSRSTSESTAALGCLVKDYFPEPVTVSWNSGALTSGVHTFPAVLQSSGLYSLSSVVTVPSSSLGTKTYTCNVDHKPSNTKVDKRVESKYGPPCPPCPAPEFLGGPSVFLFPPKPKDTLMISRTPEVTCVVVDVSQEDPEVQFNWYVDGVEVHNAKTKPREEQFNSTYRVVSVLTVLHQDWLNGKEYKCKVSNKGLPSSIEKTISKAKGQPREPQVYTLPPSQEEMTKNQVSLTCLVEGFYPSDIAVEWESNGQPENNYKTTPPVLDSDGSFFLYSDLTVDKSRWQEGNVFSCSVMHEALHNHYTQKSLSLSLGK
Turning to B1, the “BiAb formation efficiency (%)” value in assay [1] was at least 90%.

B2: humanized A69 antibody H chain, IgG4-type w3 (K370E, K439E) (other)
heavy: B1 heavy with D407R, K437E
Regarding B2, the “BiAb formation efficiency (%)” value in assay [2] is at least 90%.

B3: humanized A69 antibody H chain, IgG4-type w3C2 (K370E, K439E, S354C) (other)
heavy: B1 heavy with S352C, D407R, K437E
Regarding B3, the “BiAb formation efficiency (%)” value in assay [3] is at least 90%.

B4: humanized A69 antibody H chain, IgG4-type w3C (K370E, K439E, Y349C) (other)
heavy: B1 heavy with Y347C, D407R, K437E
As for B4, the “BiAb formation efficiency (%)” value in assay [4] is at least 90%.

B5: humanized A69 antibody H chain, IgG4-type s1C (R409D, Y349C) (other)
heavy: B1 heavy with Y347C, E368K
B5: in assay [5], the “BiAb formation efficiency (%)” value was at least 90%.

B6: humanized A69 antibody H chain, IgG4-type w2 (R409D, K439E) (other)
heavy: B1 heavy with E368K, K437E
In the case of B6, the “BiAb formation efficiency (%)” value in assay [6] was at least 90%.

The values are drawn from US20260035728A1 (Chugai, published 2026).
